{"source": "paper PMC7527219", "about": "(Science Advances, 2020)", "key": {"[1]": {"target": "PmtCD PSM transporter (C2D2 heterotetramer) (S. aureus)", "assay": "MST"}, "[2]": {"details": "b7: ref [9], [10]; b55: ref [10]; cited from earlier work"}}, "note": "“Also recorded” adds a separate entry of the source. Peptide text beside a SMILES is read from it.", "data": [{"compound": "PSMα3F3A peptide", "values": [{"measurement": "stoichiometry N", "setting": "[1]", "result": "> 2"}]}, {"compound": "CSCC[C@H](NC=O)C(=O)N[C@@H](CCC(=O)O)C(=O)N[C@@H](C)C(=O)N[C@H](C(=O)N[C@@H](C)C(=O)N[C@@H](CCCCN)C(=O)N[C@@H](CC(C)C)C(=O)N[C@@H](Cc1ccccc1)C(=O)N[C@@H](CCCCN)C(=O)N[C@@H](Cc1ccccc1)C(=O)N[C@@H](Cc1ccccc1)C(=O)N[C@@H](CCCCN)C(=O)N[C@@H](CC(=O)O)C(=O)N[C@@H](CC(C)C)C(=O)N[C@@H](CC(C)C)C(=O)NCC(=O)N[C@@H](CCCCN)C(=O)N[C@@H](Cc1ccccc1)C(=O)N[C@@H](CC(C)C)C(=O)NCC(=O)N[C@@H](CC(N)=O)C(=O)N[C@@H](CC(N)=O)C(=O)O)C(C)C", "note": "[PSMα3F3A] (HELM PEPTIDE1{[O=C[*:2]].M.E.A.V.A.K.L.F.K.F.F.K.D.L.L.G.K.F.L.G.N.N}$$$$V2.0)", "values": [{"measurement": "cytotoxicity (in words)", "setting": "[2]", "result": "cytotoxic; also recorded: maintains cytotoxicity"}]}]}
